According to patent JP2020103280A:

What was measured:
[1] = biological target: ヒトFcγRIIIaを固定化した担体(分離剤)を詰めたカラム(FcR9_Fカラム、WO2018/150973号の実施例5に記載) (human); experiment: FcγRIIIa affinity chromatography (FcR9_F column), area share of the strongly binding peak 3; antibody from bioreactor batch culture in BalanCD CHO Growth A with 5 µM Mn, day 10
[2] = biological target: ヒトFcγRIIIaを固定化した担体(分離剤)を詰めたカラム(FcR9_Fカラム、WO2018/150973号の実施例5に記載) (human); experiment: FcγRIIIa affinity chromatography (FcR9_F column), area share of the strongly binding peak 3; antibody from bioreactor batch culture in BalanCD CHO Growth A without Mn, day 9
[3] = biological target: ヒトFcγRIIIaを固定化した担体(分離剤)を詰めたカラム(FcR9_Fカラム、WO2018/150973号の実施例5に記載) (human); experiment: FcγRIIIa affinity chromatography (FcR9_F column), area share of the strongly binding peak 3; antibody from bioreactor batch culture in EX-CELL Advanced CHO Fed-batch Medium with 10 µM Mn, day 10
[4] = biological target: ヒトFcγRIIIaを固定化した担体(分離剤)を詰めたカラム(FcR9_Fカラム、WO2018/150973号の実施例5に記載) (human); experiment: FcγRIIIa affinity chromatography (FcR9_F column), area share of the strongly binding peak 3; antibody from bioreactor batch culture in EX-CELL Advanced CHO Fed-batch Medium with 5 µM Mn, day 10
[5] = biological target: ヒトFcγRIIIaを固定化した担体(分離剤)を詰めたカラム(FcR9_Fカラム、WO2018/150973号の実施例5に記載) (human); experiment: FcγRIIIa affinity chromatography (FcR9_F column), area share of the strongly binding peak 3; antibody from bioreactor batch culture in EX-CELL Advanced CHO Fed-batch Medium without Mn, day 10
[6] = biological target: ヒトFcγRIIIaを固定化した担体(分離剤)を詰めたカラム(FcR9_Fカラム、WO2018/150973号の実施例5に記載) (human); experiment: FcγRIIIa affinity chromatography (FcR9_F column), area share of the strongly binding peak 3; antibody from bioreactor batch culture in EX-CELL Advanced CHO Fed-batch Medium with 1 µM Mn, day 10

FcR9_Fカラムとの結合力が強いピーク(ピーク3)の割合 [1]: 34.7%
FcR9_Fカラムとの結合力が強いピーク(ピーク3)の割合 [2]: 27.9%
FcR9_Fカラムとの結合力が強いピーク(ピーク3)の割合 [3]: 41%
FcR9_Fカラムとの結合力が強いピーク(ピーク3)の割合 [4]: 38.4%
FcR9_Fカラムとの結合力が強いピーク(ピーク3)の割合 [5]: 35.9%
FcR9_Fカラムとの結合力が強いピーク(ピーク3)の割合 [6]: 36.5%
B1: 抗インターロイキン6レセプター(IL−6R)抗体 (antibody, V domains shown)
VH: QVQLQESGPGLVRPSQTLSLTCTVSGYSITSDHAWSWVRQPPGRGLEWIGYISYSGITTYNPSLKSRVTMLRDTSKNQFSLRLSSVTAADTAVYYCARSLARTTAMDYWGQGSLVTVSS
VL: DIQMTQSPSSLSASVGDRVTITCRASQDISSYLNWYQQKPGKAPKLLIYYTSRLHSGVPSRFSGSGSGTDFTFTISSLQPEDIATYYCQQGNTLPYTFGQGTKVEIK
